The record followed here is patent publication US20040235764A1.

The target in this experiment is fibronectin. Description: cell-based or functional assay.

In turn, “integrin α3β1 (from UniProt Q62470 33-1053; P09055 21-798) (receptor)” had a cell adhesion assay: attached F9 cells counted on fibronectin-coated wells after co-transfection with dsRNA integrin α3; reduction against F9 wild-type and co-transfection controls of 40%.
